Among the data in patent US20210155689A1 (SHANGHAI PHARMAEXPLORER, published 2021) are Mean fluorescence intensity and Inhibition rate (%) values, retold here.

Experiment [1] has as its target human LAG-3 on cells (HEK293-hLAG-3 stable cell line) (human) (UniProt P18627). Description: FACS, HEK293-hLAG-3, antibody 0.064 nM. In general terms: A flow cytometer gives signals particle by particle.
The target is the same in experiment [2]. Description: FACS, HEK293-hLAG-3, antibody 0.320 nM.
Experiment [3] addresses monkey LAG-3 on cells (HEK293-cLAG-3 stable cell line) (monkey). As to the kind of experiment: FACS, HEK293-cLAG-3, antibody 0.013 nM.
The target is the same in experiment [4]. Description: FACS, HEK293-cLAG-3, antibody 1.600 nM.
For experiment [5], the target named is human LAG-3 on cells (HEK293-hLAG-3 stable cell line) (human) (UniProt P18627). As to the kind of experiment: FACS, HEK293-hLAG-3, antibody 40.000 nM.
Experiment [6] concerns the target LAG-3-hFc protein (human LAG-3 extracellular region with hFc tag) (human) (UniProt P18627). As to the kind of experiment: ELISA, inhibition of LSECtin-His binding to coated LAG-3-hFc, antibody 0.064 nM, replicate 2. In general terms: An ELISA detects its analyte on a solid surface through an enzyme-linked reagent.
Experiment [7] has the same target. Description: ELISA, inhibition of LSECtin-His binding to coated LAG-3-hFc, antibody 8.000 nM, replicate 1.
The target is the same in experiment [8]. As to the kind of experiment: ELISA, inhibition of LSECtin-His binding to coated LAG-3-hFc, antibody 8.000 nM, replicate 2.
Experiment [9] has as its target T1, human LAG-3 on cells (HEK293-hLAG-3 stable cell line) (human, UniProt P18627 23-525).
T1 sequence: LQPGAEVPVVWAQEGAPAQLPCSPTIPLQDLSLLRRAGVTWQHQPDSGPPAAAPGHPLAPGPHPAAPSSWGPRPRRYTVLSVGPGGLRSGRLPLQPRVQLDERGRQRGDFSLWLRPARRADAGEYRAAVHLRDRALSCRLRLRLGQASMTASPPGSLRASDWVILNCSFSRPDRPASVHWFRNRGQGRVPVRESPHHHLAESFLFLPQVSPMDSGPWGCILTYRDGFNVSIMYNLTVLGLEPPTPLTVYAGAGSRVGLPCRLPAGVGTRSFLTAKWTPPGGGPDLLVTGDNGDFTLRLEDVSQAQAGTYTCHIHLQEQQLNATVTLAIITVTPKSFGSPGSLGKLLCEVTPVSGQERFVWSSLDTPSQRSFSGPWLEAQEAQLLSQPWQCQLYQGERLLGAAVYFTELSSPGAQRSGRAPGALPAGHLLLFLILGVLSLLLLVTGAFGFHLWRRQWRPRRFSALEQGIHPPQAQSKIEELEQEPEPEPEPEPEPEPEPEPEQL
As to the kind of experiment: FACS, HEK293-hLAG-3, antibody 8 nM. The text has this: (§1) A. The binding of antibodies to LAG-3 expressing cells was detected by Flow cytometry (FACS), wherein the method was according to that of Example 5.

For experiment [10], the target named is T1, human LAG-3 on cells (HEK293-hLAG-3 …). As to the kind of experiment: FACS, HEK293-hLAG-3, antibody 0.32 nM.
Description: as §1

For experiment [11] the target is unchanged. Description: FACS, HEK293-hLAG-3, antibody 0 nM.
The target is the same in experiment [12]. Description: FACS, HEK293-hLAG-3, antibody 1.6 nM.
For experiment [13] the target is unchanged. As to the kind of experiment: FACS, HEK293-hLAG-3, antibody 0.064 nM.

Chain of monkey LAG-3 on cells (HEK293-cLAG-3 stable cell line) (monkey) (P18627 other isoform, or with tags, fused parts or gaps limits assumed): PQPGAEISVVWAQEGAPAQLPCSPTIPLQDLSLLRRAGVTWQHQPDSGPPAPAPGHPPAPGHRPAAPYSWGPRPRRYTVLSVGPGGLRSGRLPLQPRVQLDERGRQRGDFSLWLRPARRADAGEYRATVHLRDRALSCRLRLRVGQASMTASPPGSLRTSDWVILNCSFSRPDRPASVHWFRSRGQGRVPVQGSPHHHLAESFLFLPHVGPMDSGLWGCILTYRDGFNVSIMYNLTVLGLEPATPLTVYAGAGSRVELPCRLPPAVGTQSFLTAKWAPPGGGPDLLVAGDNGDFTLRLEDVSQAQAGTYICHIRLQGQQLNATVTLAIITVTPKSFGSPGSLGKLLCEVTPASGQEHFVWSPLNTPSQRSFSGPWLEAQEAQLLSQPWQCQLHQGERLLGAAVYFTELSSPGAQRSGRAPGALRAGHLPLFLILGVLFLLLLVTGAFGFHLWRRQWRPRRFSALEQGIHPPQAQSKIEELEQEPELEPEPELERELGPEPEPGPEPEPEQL

With hIgG control (antibody), the Mean fluorescence intensity was found to be 3.1 in [1]; 3.1 in experiment [2]; 2.87 in [3]; 3.25 in [4]; 3.1 in experiment [5]. In addition, the Inhibition rate (%) in [6] is -11.2%; in experiment [7], -4.3%; in experiment [8], -15.1%.

B1: 405B8H3 mouse-human chimeric antibody (antibody, V domains shown)
VH: QVQLQQSGAELVRPGASVTLSCKASGYTFTDYEMHWVKQTPVHGLEWIGATDPETGNSAYNQKFKGKAIMTADKSSSTAYMELRSLTSEDSAVYYCISTGWNDWGQGTSLTVSS
VL: DIKMTQSPSSMYASLGERVTITCKASQDINSYLSWFQQKPGKSPKTLIYRADRLLDGVPSRFSGSGSGQDYSLTISSLEYGDMGIYYCLQYDEFPYTFGGGTKLEIK
notes: also called mAb103-405B8H3
As to B1, the Mean fluorescence intensity was determined as 226 in [9] and 54 in experiment [10].

B2: 556F6B8 mouse-human chimeric antibody (antibody, V domains shown)
VH: RVQLKQSGPGLVQPSQSLSITCTVSGFSLIKYGVHWVRQSPGEGLEWLGVIWRGGITDYNAAFMSRLSITKDNSKSQVFFKMNSLQADDTAIYYCAKWDGPLAMDYWGQGTSVTVSS
VL: DIVMTQSHKFLSTSVGDRVSITCKASQDVGTTVAWYQQKPGQSPKLLIYWASTRHTGVPDRFTGSGSGTDFTLTISNVQSEDLADYFCQQYSSYPYTFGGGTKLEIK
notes: also called mAb123-556F6B8; 556F8B8
Turning to B2, the results for the Mean fluorescence intensity in [11], in experiment [12] and in [13] were 4, 67 and 12, respectively.
